First the molecules themselves.
B2: Methanosarcina thermophila carbon monoxide dehydrogenase (MetCODH) α subunit (enzyme, UniProt A0A0E3ND19 1-803, looked up)
chain: MSKLTTGSFSIEDLESVQITINNIVGAAKEAAEKAEEELGPMGPTPFPTAATVRDWSFTLFDRYEPVYTPMCDQCCYCTFGPCNLEGNRRGACGLDMKGQAAREFFLRCITGCACHSAHGRHLLDHIISIFGEDMPINMGASNVIAPNIQLITGRQPKTLGDLKPIMEYVEEELGQLLATVHAGQEGAAIDYDNKAMLAGILDHVGMEVSDIAQVTALGFPKSDPEAPLVEVGMGTLDASKPVIIAIGHNVAGVTYIMDYMEDNNLTDKMEIGGLCCTAFDMTRYKREDRKPPYAKIVGTISKELKVVRSGIPDVIVIDEQCVRADLVEEGKKLKIPVIASNEKVMYGLPDRTNDDVDAIIEDIKTGKIPGCVMLDYEKLGELVPRLAMEMAPLREGISAIPSDEEMASLVAKCVACGECALACPEELDIPDAIQAAKEGDFTALDFLHDLCVGCRRCEQVCNKEIPILSVIDKAAQKAIAEEKGLVRAGRGQVSDAEIRAEGLNLVMGTTPGVIAIIGCANYPAGSKDVYRIAEEFLNRNYIVAVSGCSAMDIGMYKDADGKTLYERFPGRFERGNILNTGSCVSNSHISGTCHKVAAIFAGRNLSGNLAEIADYTLNRVGAVGLAWGAYSQKAAAIGTGCNMYGIPAVLGPHSGKYRRALIAKTYDENKWKVYDSRNGSELDIPPSPEFLITTAETWQEACVLLAKNCIRPSDNNMGRSIKLTHWIELSEKYLGVLPEDWWKFVRHEADLPLSRREELLKKLETEHGWEIDWKKKKIISGPKIKFDVSSQPTNLKRLCKEA
notes: α subunit of the CODH component of the acetyl-CoA decarbonylase/synthase (ACDS) complex, Methanosarcina thermophila strain TM-1; source: purified from M. thermophila strain TM-1 as part of the ACDS complex (Sepharose CL-6B); subcomplexes formed by dissociation on the cryo-EM grid

For data set [1], the target named is B2. Description: cryo-EM structure; purified native ACDS complex, 4 mg/mL in 25 mM MOPS, 25 mM Na2SO4, pH 7.2; chameleon-plunged, dispense-to-plunge time 150 ms; on-grid dissociation gave CODH tetramer (2.8 Å), CODH/ACS pentamer and hexamer (3.2 Å each). As to conditions: both partners purified.
Data set [2] deals with the molecule itself. The description is as above.

B1: Methanosarcina thermophila acetyl-CoA synthase (MetACS) β subunit (enzyme, UniProt A0A0E3NEI1 1-472, looked up)
chain: MSEFPFEISPMFEGERVRKEGMFVELGGPKSLGLELVRAKPMDEIEDGKVTIVGPDLKDMEEGKTYPWAMIFHVGGELVEPDLESVIERRVHDFINYCQGIMHLNQRYDVWMRISKDTAAKMDSFEPFGKAVMMLFKTELPFIEKMQVTFYTDQAEVEKQMAEAMEIFKARDARTKDLHDEDVDVFYGCTLCQSFAPTNVCVVSPDRVSLCGAINWFDGRAAAKVDPEGPQFAIEKGELLDAKTGEYSGVNEVAKKLSSGEFDKIKLHSFFDAPHTSCGCFEVVGFYIPEVDGIGWVNREYQGMAPNGLGFSTMAGQTGGGKQIVGFLGIGINYFYSPKFIQADGGWNRVVWLPSMLKEKIDEAIPDDMKDKIATEKDVTDIESLKTFLKEKNHPVVANWAAEAEEEEEEEEEEEEVAAEAAPMMMPAAGFQMPAMPAMPMMSGGAGGIKLTFKNAKITIDRMIISEKKEKK
notes: β (ACS) subunit of the ACDS complex, Methanosarcina thermophila strain TM-1; native protein; the model building counts residues 1 to 472, of which 398 to 472 (C-terminal extension) had no EM density; A2 domain residues 4 to 151, A3 domain residues 186 to 397; Carries the Ni-Fe-S A-cluster, with density modelled as CO on the proximal nickel; The deposited coordinates hold only about residues 1-397 …
Regarding B1, the binding result in data set [1] is reported as “binds”.

Consider B2, for which the binding result in data set [2] was “binds”.

(Values after publication PMC11474084, “Capturing a methanogenic carbon monoxide dehydrogenase/acetyl-CoA synthase complex via cryogenic electron microscopy” (Proceedings of the National Academy of Sciences of the …, 2024).)
